From paper PMC10178127, “Immunomodulatory Effects of the Pea Defensin Psd1 in the Caco-2/Immune Cells Co-Culture upon Candida albicans Infection” (International Journal of Molecular Sciences, 2023)

How the values were obtained:
[1] = tested on: human peripheral blood mononuclear cells (PBMCs); experiment: Resazurin-based cell cytotoxicity assay; conditions: 24 h
Protocol: The cytotoxic properties of the pea defensin Psd1 were investigated by resazurin-based cell cytotoxicity assay as previously described. In brief, PBMCs were seeded in 96-well plates at 2 × 10^6 cells per well in RPMI-1640 supplemented with 10% FBS and kept in a CO2 incubator for 24 h. After this, serial two-fold dilutions of defensin in a complete culture medium were added to the wells at final concentrations from 0.2 to 50 μM and the plates were incubated for 24 h. Resazurin (Sigma) was added at a final concentration of 70 µM, and the plates were incubated overnight (16–18 h). Fluorescent resorufin was registered using a 535/595 filter at PlateReader AF2200 (Eppendorf). Untreated cells were used as negative controls. Non-ionogenic detergent Triton X-100 and membrane-active peptide melittin from honeybee venom were used as positive controls. The cell viability was calculated according to the following equation: cell viability (%) = (Fsample/Fcontrol) × 100%. Cell lysis was monitored with an Olympus CKX41 microscope.

[2] = tested on: polarized Caco-2 monolayer; experiment: Real-time PCR of HBD-2, IL-1β, IL-8/CXCL8 genes in Caco-2 cells; format: cell-based, human
Protocol: Caco-2 cells were seeded into the wells of 24-well plates in the complete RPMI-1640 medium containing 10% FBS and 1X antibiotic-antimycotic solution and kept in a humidified CO2-incubator (5% CO2, 37 °C). Cells were grown for 18 days and the medium was changed twice a week. The presence of a cell monolayer was checked using an inverted microscope and the plates were incubated one more week for complete polarization of Caco-2 cells. Caco-2 cells were stimulated by adding fresh complete RPMI-1640 medium without antibiotics, containing Psd1 at the final concentration of 2 µM or Candida albicans at the concentration of 5 × 10^4 cells/mL (1.3 × 10^4 cells per cm^2 of Caco-2 monolayer) or yeast cells together with the pea defensin at the same concentration. RPMI-1640 medium only was used in control wells.
Total RNA was isolated from Caco-2 cells using TRIzol reagent (Invitrogen) according to the manufacturer’s instructions after 4 or 24 h of stimulation and cell washing by RPMI-1640 medium. The quality and quantity of total RNA were determined by the A260/280 ratio using NanoPhotometer NP80 (Implen GmbH, München, Germany) as well as agarose gel electrophoresis (Supporting Materials, Figure S3). RNase inhibitor (Evrogen, Moscow, Russia) was added to the final preparation of total RNA. Two μg of total RNA was taken to synthesize the cDNA using MINT-Universal cDNA synthesis kit (Evrogen, Moscow, Russia) containing MMLV-based reverse transcriptase following the manufacturer’s instructions.
Real-time PCR was performed on CFX Opus 96 Real-Time PCR System (Bio-Rad, Hercules, CA, USA) using the SYBR Green PCR kit (Evrogen, Moscow, Russia) and target-specific primers (Supporting Materials, Table S4). The internal control housekeeping gene GAPDH was amplified simultaneously in separate reaction tubes [36]. The reaction conditions were set as follows: initial heating at 95 °C for 3 min, followed by 50 cycles of reactions at 95 °C (15 s), followed by 62 °C (20 s), and finally 72 °C (30 s). Melt curves were obtained using a temperature increment from 50 to 95 °C at 0.5 °C/5 s (Supporting Materials, Figure S4). The threshold cycle number (CT) of reactions was determined using the CFX Maestro 2.2 (version 5.2.008.0222) software (Bio-Rad, Hercules, CA, USA). The efficiency of PCR was monitored by using LinRegPCR online tool (https://www.gear-genomics.com/rdml-tools/). The relative expression of the genes of interest was calculated by normalization to GAPDH using the standard 2^−ΔΔCT method. Unstimulated Caco-2 cells after 4 and 24 h of incubation were used as controls. Experiments were performed twice in six technical replications. Gene expression in controls and experimental samples was compared with a t-test using GraphPad Prism v.8.0.1. The p-values ≤ 0.05 were considered significant.

[3] = tested on: C. albicans v47a3; experiment: Yeast growth in Caco-2/C. albicans co-culture, microscopy; format: cell-based, Candida albicans; conditions: 2 μM Psd1, 4 and 24 h
Protocol: Candida albicans cells in stock were inoculated onto modified YPD (yeast extract 5 g/L, peptone 10 g/L, glucose 10 g/L) agar plates, and incubated for 24 h at 37 °C. After replating, cells were cultured in complete RPMI-1640 (Capricorn Scientific) without antibiotics at 37 °C to optical density 1.0 at 540 nm, centrifuged, and diluted up to the concentration of 5 × 10^4 cells/mL in fresh RPMI-1640 without FBS and antibiotics. In the case of studying combined action on the epithelium of yeast cells and the pea Psd1 recombinant peptide was dissolved in water at the concentration of 200 μM and was added to yeast cell suspension up to the final concentration of 2 μM. Yeast growth and morphology in the presence or absence of peptide under co-cultivation with Caco-2 cells in a 24-well plate were estimated using an inverted microscope, Olympus CKX41 (Olympus, Tokyo, Japan).

[4] = tested on: Beas-2B human bronchial epithelial cells; conditions: cited from earlier work
Text: It was shown previously that pea Psd1 is not toxic for Beas-2B human bronchial epithelial cells. Here we investigated the cytotoxic action of the pea Psd1 on human immune cells by using a human peripheral blood mononuclear cells (PBMCs) fraction.

For “Psd1: pea defensin from Pisum sativum (UNIPROT P81929), recombinant peptide overexpressed in Escherichia coli (KTCEHLADTYRGVCFTNASCDDHCKNKAHLISGTCHNWKCFCTQNC; UniProt P81929 1-46, looked up)”, the “cytotoxic activity on PBMCs” value ([1]; 0.2 to 50 μM) was “no cytotoxic activity”, the Cell viability ([1]; PBMCs, 50 μM) was 100% and the “expression of HBD-2, IL-1β and IL-8/CXCL8 genes” value (“expression” below) ([2]; 2 μM Psd1, 24 h) was “Immunostimulatory action of Psd1 was observable”. For the same substance, the “expression” value ([2]; 2 μM Psd1 alone, 4 h, relative to untreated Caco-2) was “upregulated all three genes”, the “expression” value ([2]; 2 μM Psd1 with C. albicans vs C. albicans alone, 24 h, p < 0.05) was “significantly reduced the inhibitory effect of pathogenic fungus” and the “expression” value ([2]; 2 μM Psd1 with C. albicans, 4 h) was “more pronounced activation of the protective immune response”. The “growth of C. albicans in Caco-2/C. albicans co-culture” value [3] was “did not inhibit the growth of C. albicans” and the “toxicity for Beas-2B cells” value [4] was “not toxic”.
